Test results taken from the supplement of paper PMC12042874.
± gives the uncertainty stated by the source.

Assay: amyloid nucleation score (Sup35N fusion, yeast selection) (log enrichment); library NNK2; higher = more nucleation; inactive = no reads after selection
How it was run: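 The nucleation score is a DiMSum log enrichment of output over input reads, centred on the mode score of non-aggregating sequences. Sequences under 100 input reads were excluded, and reads came from Illumina sequencing of plasmid inserts. Psi-negative yeast expressing Sup35N fused to peptides of 20 random codons were induced with 100 μM copper sulfate for 24 hours and grown 7 days at 30°C on medium lacking adenine and uracil. Random libraries had three technical output replicates.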

Substance | amyloid nucleation score
SLLGVENNCVISFTTIFVVS | 5.11 ± 0.088
YYNKNLFCLFSVLEYKTTFL | 4.09 ± 0.056
TLNSRWVNNSPVEM | -0.12 ± 1
IFSKVRLFFRRGMNFVMGEV | -1.64 ± 0.77
YVDAEARLFCGLLGLVFGDL | 5.47 ± 0.097
SMGVGTAVTCRTLVVLDGSC | 0.741 ± 0.37
SVAVPWGFTSYSCVRLGGFN | 3.06 ± 0.14
IMCCTRLLNSFSAITIVHIA | -0.03 ± 0.43
LWSVYYMSVIIFPFGKHPKQ | 7.149 ± 0.056
FLTLPFLPAHLKKPHKSLLR | -0.083 ± 0.56
LLSVVKCACEMRTTKAVIGA | 2.05 ± 0.35
RNFCGTRARSISYWAESERW | -0.089 ± 1.1
LASNFGFHGLAADMDALWCY | -1.23 ± 0.78
SCVSTYDFNSIR | -0.484 ± 0.25
APADH | 2.52 ± 0.15
LITRVSSYCCWCLGFTIWAL | -0.77 ± 1
TSVGYMMLSNW | 4.88 ± 0.095
INEFCATLQERRMCYLRMKL | 0.921 ± 0.74
GVLKVLLLAPISFTVVCHSS | 3.65 ± 0.055
GCYTET | 0.729 ± 0.52
STTGYSVWFVA | -1.19 ± 0.62
CHACLWRETRVRTCVSAEHH | 1.65 ± 0.35
WWHAAFFVAAFPNA | 2.19 ± 0.17

Substance | amyloid nucleation score
DYSVEGHLRMLLNKKRVGVE | -1.01 ± 0.76
IRCVNIKSLP | -1.24 ± 1.1
CLRVVCLRGLFYYANSACQV | -0.199 ± 0.54
RCFIDLPCCQYLVQPRVGSG | -0.26 ± 1
YNVTTMYNYYLICISLATMY | 7.09 ± 0.08
CAGGFGLKPAFVYEFWCKSI | -1.17 ± 1
HVHKL | -0.403 ± 0.39
FGFKCSAVITICPGPSRLGS | 5.12 ± 0.081
FIRVLVWWYVCRLFPHCVAR | 0.554 ± 0.81
PCGSCPRLQQIVSRDGDDAG | 2.71 ± 0.21
VLFNYKLITGSMFCTRHTRP | 2.08 ± 0.11
KVFVAYGMAVMLFYICHSK | 4.561 ± 0.037
ARTICTFRHMSGIGAMGLDC | 0.289 ± 0.8
LTCVSAR | 1.2 ± 0.16
VNSVMARMITCTSVVGCKYW | -0.259 ± 0.19
GTSLYGFSPTAHVRVSHRGE | 0.957 ± 0.47
SGSAESFLT | 0.195 ± 0.53
VDHQVFNHDHCGRIYVLCLG | -0.322 ± 0.31
VDDFELMLYAMVVNGLELLD | -0.19 ± 1
AIFYDLMVNQRFVFTSFLWL | -0.14 ± 0.74
CLKSISTRNR | -0.932 ± 0.76
RLRAQSHCAVAAGRNMEPWA | 5.986 ± 0.043
WIIHMSSEAYYPSSFGRIVI | -0.872 ± 1.1

Substance | amyloid nucleation score
RSSCRRNSYLRQLVMSLVRY | -0.105 ± 1.1
PTLTSIELSSTPRIRFWDSA | 0.122 ± 0.26
RNRSKQDQWRNELSAGLHGV | -0.359 ± 0.45
NVLNGISKLMRHFALKYASM | 0.528 ± 0.4
YSRGGKMVAARGCGSAEPDA | -0.64 ± 0.76
RSYDQVRSCHARMREDSNVQ | 4.61 ± 0.066
MMSGCGFSLKACLKEWRGGL | 7.572 ± 0.036
VNLVYSYFNISGWIEFSSLC | 2.98 ± 0.053
FYMNPRRYRGLVIMFFSSPV | -1.27 ± 1.1
LYLTWCKTLSDNLAL | -1.15 ± 0.76
FTWHLLYTNDCPLVIYMMEL | -0.403 ± 0.74
YLDRGYRGGFPFGKNVWTDG | -1.36 ± 0.78
CIRMLSVIYHCPL | 4.85 ± 0.07
HLVGEKSSKRDSGGRGPRRY | -0.32 ± 0.61
RKCQIRVMKNSD | -0.858 ± 1.1
LVDHLGFMRMSMAGSWWVEG | 0.42 ± 0.8
VVGPFHFIVMMKVSKVRVKL | 6.212 ± 0.039
NRYVEVCPFLMGTVVGLWLR | 0.851 ± 0.8
YNPCLSRSHSKCLRTWLECR | 1.26 ± 0.44
MASSFQFSDTGSELTSREAR | -0.237 ± 0.79
TLIGNDDLVVTCTYSYDPTL | -0.145 ± 1.1
IFYWLIHHRLMYDFFCRVLT | -0.995 ± 0.76
VYTHSGIVY | -0.82 ± 0.62
